Key:
PAR polymer = PAR polymer overlay / dot blot (far western); format: binding; conditions: PAR polymer overlay assay
Source text: PAR binding is specified by a sequence of approximately 20 amino acids containing N-terminal basic amino acids and a C-terminal region containing alternating hydrophobic and basic amino acids (FIG. 24). Iduna contains a predicted PAR polymer binding sequence within amino acids 144-167 of the WWE domain (FIGS. 1 and 24). The PAR-binding domain was defined by comparing to the consensus sequence for PAR-binding and the known PAR binding domain of Histone 3 (FIG. 24). HEK293 cells were transfected with GFP, GFP-Iduna lacking the WWE domain (GFP-IdunaΔWWE), GFP-Iduna lacking the RF domain (GFP-IdunaARF), and full-length GFP-Iduna, followed by immunoprecipitation with a GFP antibody. […] Only GFP-Iduna-ARF and full-length GFP-Iduna can co-immunoprecipiate PAR binding proteins (FIG. 25). The critical amino acids in the PAR binding domain, 156Y and 157R, were mutated to 156A and 157A in full length Iduna (Iduna-YRAA). […] Similar results are obtained with a biotin-tagged PAR polymer followed by detection with an anti-biotin antibody (FIG. 26). […] Histone H3 is a known PAR binding protein and was used as a positive control for the PAR overlay assay. […] An assay based on electrophorectic mobility shift (EMSA) for PAR binding was developed to monitor PAR polymer binding to Iduna. […]

PARsylated PARP1 = experiment: PARG activity on PARsylated PARP1; format: biochemical
Experimental: FIG. 85—PARG activity was measured by incubation with PARsylated PARP1 as indicated. The level of PARsylated PARP1 (Rb-PARP1) was monitored by immunoblot with anti-PAR antibody. There is a slight difference in the sensitivity of assays used to detect PAR, which accounts for the ability of 1 unit of PARG to eliminate PAR in B, but 1.2 units of PARG is required in A.
As disclosed herein, Iduna contains a consensus PBM is its WWE domain and that mutating the hydrophobic amino acids 155Y and 156R to alanine to create an Iduna YRAA mutant disrupts PAR binding to Iduna. MCF7 cells were transfected with GFP-Iduna, GFP-Iduna C60A and GFP-Iduna YRAA. 48 hours later Iduna was immunoprecipitated with antibodies to GFP followed by immunoblot analysis with antibodies to PAR. Iduna and Iduna C60A bind PAR whereas Iduna YRAA is incapable of binding PAR (FIG. 83). To confirm that Iduna binding to PARP1 is dependent on PARsylation of PARP1, binding of automodified PARP1 with ^32P-NAD was monitored in a GST pull down experiment with Histone H3 as a positive control (FIGS. 84 and 85). […] Iduna and Iduna-C60A bind to a range of PAR polymers of varying length similar to H3, whereas Iduna-YRAA fails to bind to PAR, as determined by phosphorimager detection of radiolabeled PAR polymer bound to Iduna, Iduna-C60A and H3 after separation by Tris-borate-EDTA PAGE (FIG. 87).

MCF7 cells [1] = experiment: Alkaline comet assay after γ-irradiation; format: cell-based, human; conditions: γ-irradiation 2 Gy, 15 min
Experimental: Comet assay. Single cell gel electrophoresis assay was performed by following the manufacturer's instructions. Briefly, established stable cell lines were irradiated (2 Gy) with a Gammacell irradiator and then further incubated for 15 min at 37° C. Cells were collected at 500×g at 4° C. and rinsed twice with ice cold PBS (Ca++ and Mg++ free). A total of 5×10^5 cells were counted and resuspended into PBS (Ca++ and Mg++ free) and then combined with LMAgarose (low melting agarose) at a ratio 1:10 (v/v). Each sample was spotted into CometSlide™ and lysed with buffer (supplied with CometAssay Kit, Trevigen) for 1 h at 4° C. After draining the excess lysis buffer, slides were immersed with alkaline unwinding solution (200 mM NaOH, pH>13, 1 mM EDTA) for 1 h at RT. To the single cell electrophoresis, each comet slide was placed in electrophoresis slide tray with 1 L of alkaline unwinding solution and applied to 21 Volts for 30 min for electrophoresis. After draining the excess electrophoresis buffer, slides were rinsed twice with dH2O and then fixed with 70% ethanol for 5 min. To facilitate single cell observation, slides were dried at 40° C. and stained with SYBR Green I (supplied with CometAssay Kit) for 5 min at 4° C. […] Fifty cells per slide were monitored and the DNA damage was calculated using comet tail length and head diameter parameters.

MCF7 cells [2] = experiment: Cell cycle analysis after γ-irradiation; format: cell-based, human; conditions: γ-irradiation 2 Gy
Experimental: Cell cycle analysis. Studies were performed to evaluate the cell cycle response of each stable cell lines. Cells were plated onto 150 mm culture dishes and cultured for 24 h at 37° C. with fresh growth medium. Following replacement of growth medium, cells were irradiated at 2 Gy with a Gammacell irradiator. After 12 h, cells were washed once with PBS and incubated with PBS containing 0.2% EDTA for 5 min at 37° C., thereafter scraped with fresh growth medium and collected at 500×g at 4° C. Collected cells were washed once with ice cold PBS and then fixed with 70% ethanol. Cells were washed once with PBS containing 1% FBS and resuspended into propidium iodide (PI) staining buffer (PBS, pH 7.4, 50 μg/ml PI, 1% FBS, 100 μg/ml RNase) for 30 min at 37° C. Cells were monitored for DNA content by a flow cytometry (BD Biosciences) and then data were analyzed with FlowJo using Dean-Jett-Fox model for the quantification of each cell cycle phase.

MCF7 cells [3] = experiment: MNNG cell death assay in stable MCF7 cell lines; format: cell-based, human; conditions: MNNG 500 μM 15 min, 24 hr
Experimental: Cell death assay. GFP, GFP-Iduna, GFP-Iduna C60A, GFP-Iduna YRAA, shRNA-Iduna and shRNA-Iduna/GFP-Iduna stably transfected cells were treated with 500 μM MNNG for 15 min, and replaced with fresh growth media. After 24 h, the cells were stained with […] Hoechst 33342 (Invitrogen) and […] propidium iodide (PI) (Invitrogen) and counted by automated computer-assisted program (Carl Zeiss). The percentage of cell death was determined as the ratio of live to dead cells compared with the percentage of cell death in control.

MCF7 cells [4] = experiment: Determination of apurinic/apyrimidinic (AP) sites; format: cell-based, human; conditions: 1 h
Experimental: Determination of apurinic/apyrimidinic (AP) sites. The amount of AP sites in genomic DNA was monitored by a DNA damage quantification kit (BioVision). Briefly, cells were treated with either DMSO or 500 μM MNNG for 15 min, and then replaced with normal growth media. After 1 h, cells were scraped and harvested at 500×g for 5 min and washed once with PBS. Genomic DNA was isolated using a Biovision Genomic DNA Isolation Kit (BioVision) and then AP sites on the 0.5 μg of genomic DNA was labeled with biotin by the Aldehyde Reactive Probe (ARP) reagent (supplied with the DNA damage quantification kit) for 1 h at 37° C. To precipitate the biotin-tagged DNA, sample was mixed with TE buffer containing 2% glycogen and then sequentially incubated with ice cold 70% ethanol for 30 min at −20° C. […] To determine of the number of AP sites in DNA, samples were dissolved in TE buffer and then transferred into 96 well plate with DNA binding buffer (supplied with the DNA damage quantification kit). After 12 h, samples were washed five times with DNA washing buffer (supplied with the DNA damage quantification kit) and then biotin labeled AP sites were quantified using an avidin-biotin assay. Each sample and standards (supplied with a DNA damage quantification kit) were run in triplicate and the OD was measured at 650 nm using a 96-well plate reader (SpectraMax Plus384 Microplate Reader).

B1: GST-Iduna: full length recombinant GST-Iduna fusion protein (protein)
chain: MEMAGCGEIDHSINMLPTNKKANESCSNTAPSLTVPECAICLQTCVHPVSLPCKHVFCYLCVKGASWLGKRCALCRQEIPEDFLDKPTLLSPEELKAASRGNGEYAWYYEGRNGWWQYDERTSRELEDAFSKGKKNTEMLIAGFLYVADLENMVQYRRNEHGRRRKIKRDIIDIPKKGVAGLRLDCDTNTVNLARESSADGADSGSAQTGASVQLAVPSSTRPLTSVDGQLTSPVTPSPDAGISLEDSFAHLQLSGDSIAERSHRGEGEEDHESPSSGRVPDTSVEETESDASSDSEDAPVVVAQHSLTQQRPLVPNGNQTVADQSDRSGTDRSVAGGGTMSVNVRSRRPDGQCTVIEV
modifications: left off: a dimerising Fc or GST
notes: full length recombinant GST-Iduna fusion protein
B1 was tested, and the PAR polymer binding (PAR polymer) was “binds to PAR polymer”.

B2: PARG: PAR glycohydrolase, which degrades PAR (protein, UniProt Q86W56 1-976, looked up)
Poly(ADP-ribose) …: MNAGPGCEPCTKRPRWGAATTSPAASDARSFPSRQRRVLDPKDAHVQFRVPPSSPACVPGRAGQHRGSATSLVFKQKTITSWMDTKGIKTAESESLDSKENNNTRIESMMSSVQKDNFYQHNVEKLENVSQLSLDKSPTEKSTQYLNQHQTAAMCKWQNEGKHTEQLLESEPQTVTLVPEQFSNANIDRSPQNDDHSDTDSEENRDNQQFLTTVKLANAKQTTEDEQAREAKSHQKCSKSCDPGEDCASCQQDEIDVVPESPLSDVGSEDVGTGPKNDNKLTRQESCLGNSPPFEKESEPESPMDVDNSKNSCQDSEADEETSPGFDEQEDGSSSQTANKPSRFQARDADIEFRKRYSTKGGEVRLHFQFEGGESRTGMNDLNAKLPGNISSLNVECRNSKQHGKKDSKITDHFMRLPKAEDRRKEQWETKHQRTERKIPKYVPPHLSPDKKWLGTPIEEMRRMPRCGIRLPLLRPSANHTVTIRVDLLRAGEVPKPFPTHYKDLWDNKHVKMPCSEQNLYPVEDENGERTAGSRWELIQTALLNKFTRPQNLKDAILKYNVAYSKKWDFTALIDFWDKVLEEAEAQHLYQSILPDMVKIALCLPNICTQPIPLLKQKMNHSITMSQEQIASLLANAFFCTFPRRNAKMKSEYSSYPDINFNRLFEGRSSRKPEKLKTLFCYFRRVTEKKPTGLVTFTRQSLEDFPEWERCEKPLTRLHVTYEGTIEENGQGMLQVDFANRFVGGGVTSAGLVQEEIRFLINPELIISRLFTEVLDHNECLIITGTEQYSEYTGYAETYRWSRSHEDGSERDDWQRRCTEIVAIDALHFRRYLDQFVPEKMRRELNKAYCGFLRPGVSSENLSAVATGNWGCGAFGGDARLKALIQILAAAAAERDVVYFTFGDSELMRDIYSMHIFLTERKLTVGDVYKLLLRYYNEECRNCSTPGPDIKLYPFIYHAVESCAETADHSGQRTGT
For B2, the “removal of PAR from PARsylated PARP1” value (PARsylated PARP1) was “dose dependently removes PAR from PARsylated PARP1”.

B3: Iduna C60A: Iduna RING finger point mutant lacking E3 ligase activity (protein, UniProt Q9NTX7 1-359, looked up, variant C60A)
E3 ubiquitin-protein ligase …: MMAGCGEIDHSINMLPTNRKANESCSNTAPSLTVPECAICLQTCVHPVSLPCKHVFCYLAVKGASWLGKRCALCRQEIPEDFLDKPTLLSPEELKAASRGNGEYAWYYEGRNGWWQYDERTSRELEDAFSKGKKNTEMLIAGFLYVADLENMVQYRRNEHGRRRKIKRDIIDIPKKGVAGLRLDCDANTVNLARESSADGADSVSAQSGASVQPLVSSVRPLTSVDGQLTSPATPSPDASTSLEDSFAHLQLSGDNTAERSHRGEGEEDHESPSSGRVPAPDTSIEETESDASSDSEDVSAVVAQHSLTQQRLLVSNANQTVPDRSDRSGTDRSVAGGGTVSVSVRSRRPDGQCTVTEV
modifications: GFP tag
In the case of B3, the “comet head diameter and tail length” value (MCF7 cells [1]) is reported as “does not prevent the reduction in head diameter and increase in tail length”, the “cell cycle arrest and cell survival” value (MCF7 cells [2]) is reported as “not protective” and the MNNG-induced cell death (MCF7 cells [3]) is reported as “not protective”. For the same molecule, the “increase in AP sites after MNNG” value (MCF7 cells [4]) was “fails to reduce the number of AP sites”.

Source: US9623039B2, “Treatment and prevention of pathological conditions using iduna related techniques and compositions” (VALTED, LLC, priority 2010, dated 2017)
